Key:
L363 cells = experiment: JNG assay, co-culture with L363 cells; assay type: cell-based; conditions: co-culture with L363
Method in brief: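 Jurkat NFAT-GFP (JNG) cells stably transduced with SARs by lentivirus, with drug selection where the construct carried a resistance gene, then co-cultured with target cells at E:T ~1:2 for ~4–18 h. % GFP-positive cells measured by FACS against parental JNG; +/- to 5+ correspond to ~5–50% GFP-positive.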

Nalm6 cells = experiment: JNG assay, co-culture with Nalm6 cells; assay type: cell-based; conditions: co-culture with Nalm6
Procedure: Cellular supernatant is collected and assayed for the induction of cytokines (e.g., IL2).
JNG (Jurkat cells expressing EGFP under an NFAT promoter) were infected with lentiviral vectors encoding different single chain and multi-chain SARs by spinfection in the presence of 8 µg/ml of Polybrene® (Sigma, Catalog no. H9268). The Jurkat-NFAT-GFP cells are engineered in such a way that the IL-2 promoter, which carries NFAT binding sites, is cloned upstream of the GFP gene. These cells have been used to study signaling via TCR and CAR. The different SARs were stably expressed in Jurkat NFAT-GFP cells by lentiviral mediated gene transfer, followed by selection with puromycin or blasticidin. No drug selection was used in case the construct lacked an antibiotic resistance gene. The SAR-expressing Jurkat-NFAT-GFP cells were cocultured with the target cells at E:T ratio of approximately 1:2 for approximately 4 hours to 18 hours. When the interaction between SIRs and their target antigen results in activation of the NFAT pathway, GFP expression is induced. […] GFP expression was monitored by FACS analysis. The Jurkat-NFAT-GFP (parental) cells were used as control. The structure of different constructs can be determined based on their names. For example, the construct CD8SP-CD19-hu-mROO5-1-vL-[hTCRa-C SDVP]-F-F2A-Spe-IgHSP-Apa-CD20-vHH-2HCD25-G4S-CDl9-hu-mROO5-1-vH-Mlu-[hTCRb-KACIAH]-F-P2A-PAC has the following modules from 5′ to 3′ direction: a CD8 signal peptide (CD8SP), the CD19 targeting hu-mROO5-1 vL fragment (CD19-hu-mROO5-1), Xho1 cloning site, human TCRa constant chain containing CSDVP mutations (hTCRa-CSDVP), Furine cleavage site (F), F2A ribosomal skip sequence (F2A), SpeI site, human IgH signal peptide (IgHSP), Apa I restriction enzyme site, camelid CD20-2HCD25-VHH module targeting CD20, BamHI restriction enzyme site, Glycinex4-serine linker (G4S), BstI restriction enzyme site, CD19-hu-mROO5-1-vH fragment targeting CD19, Mlu I restriction enzyme site, human TCRb constant chain containing KACIAH mutations ([hTCRb-KACIAH]), Furine cleavage site (F), P2A ribosomal skip sequence and Puromycin resistance gene (PAC). The sequence of the other constructs in the table can be similarly determined from their names and by referring to the different Tables of this disclosure that provide the names and SEQ ID NO of the different modules. Alternatively, the composition and modular architecture of the different SAR constructs can be determined from their sequences by bioinformatics tools, including using nucleic acid and amino acids homology searches. A SAR is considered positive in the assay in case the SAR expressing Jurkat-NFAT-GFP cells show greater % GFP positive cells when cultured with the target cell line as compared to parental Jurkat-NFAT-GFP cells. The signs +/-, +, 2+ etc. after the name of the cell lines indicate the relative degree of positivity on the Jurkat-NFAT-GFP assay as measured by the % GFP positive cells after culture of the SAR expressing Jurkat-NFAT-GFP cells with that cell line above the % GFP cells observed in parental Jurkat NFAT-GFP cells serving as controls. In general, the number +/-, +, 2+, 3+, 4+, 5+ refer to approximately 5%, 10%, 20%, 30%, 40% and 50% GFP positive cells. The % of GFP induction in the above assay is dependent not only the relative strength of the SAR but also, among other factors, on the relative level of expression of the SAR in the JNG cells and the relative level of expression of the target antigen in the target cell line. To control for the difference in gene transduction efficiency of the different SAR constructs, the experiment was conducted with JNG cells transduced with SAR constructs co-expressing a drug resistance gene (e.g., puromycin or PAC) followed by drug selection to generate a stable population of SAR-expressing cells. […]

B1: 21986 (protein)
chain: MALPVTALLLPLALLLHAARPQLQLQESGPGLVKPSETLSLTCTVSGDSISSGDYYWGWIRQPPGKGLEWIGHIYYSGVTYYNPSLKSRVTISVDTSRNQFSLKLSSVTAADTAVYYCTREDSSNWRSRGQGTLVTVSSLEDLKNVFPPEVAVFEPSEAEISHTQKATLVCLATGFYPDHVELSWWVNGKEVHSGVCTDPQPLKEQPALNDSRYCLSSRLRVSATFWQNPRNHFRCQVQFYGLSENDEWTQDRAKPVTQIVSAEAWGRADCGFTSESYQQGVLSATILYEILLGKATLYAVLVSALVLMAMVKRKDSRGRAKRSGSGATNFSLLKQAGDVEENPGPTSMDWIWRILFLVGAATGAHSFEEVQLLESGGGLVQPGGSLRLSCAASGFTFSSYAMSWVRQAPGKGLEWVSSISGSGDYIYYADSVKGRFTISRDISKNTLYLQMNSLRAEDTAVYYCAKEGTGANSSLADYRGQGTLVTVSSTRIQNPDPAVYQLRDSKSSDKSVCLFTDFDSQTNVSQSKDSDVYITDKCVLDMRSMDFKSNSAVAWSNKSDFACANAFNNSIIPEDTFFPSPESSCDVKLVEKSFETDTNLNFQNLSVIGFRILLLKVAGFNLLMTLRLWSSRAKRSGSGVKQTLNFDLLKLAGDVESNPGPSRGHMTEYKPTVRLATRDDVPRAVRTLAAAFADYPATRHTVDPDRHIERVTELQELFLTRVGLDIGKVWVADDGAAVAVWTTPESVEAGAVFAEIGPRMAELSGSRLAAQQQMEGLLAPHRPKEPAWFLATVGVSPDHQGKGLGSAVVLPGVEAAERAGVPAFLETSAPRNLPFYERLGFTVTADVEVPEGPRTWCMTRKPGA
- NFAT-GFP ASSAY: L363 (L363 cells): + (refer to approximately 5%, 10%, 20%, 30%, 40% and 50% GFP positive cells)
- NFAT-GFP ASSAY: Nalm6 (Nalm6 cells): +/- (refer to approximately 5%, 10%, 20%, 30%, 40% and 50% GFP positive cells)

B2: 21987 (protein)
chain: MALPVTALLLPLALLLHAARPQLQLQESGPGLVKPSETLSLTCTVSGDSISSGDYYWGWIRQPPGKGLEWIGHIYYSGVTYYNPSLKSRVTISVDTSRNQFSLKLSSVTAADTAVYYCTREDSSNWRSRGQGTLVTVSSLEDLKNVFPPEVAVFEPSEAEISHTQKATLVCLATGFYPDHVELSWWVNGKEVHSGVCTDPQPLKEQPALNDSRYCLSSRLRVSATFWQNPRNHFRCQVQFYGLSENDEWTQDRAKPVTQIVSAEAWGRADCGFTSESYQQGVLSATILYEILLGKATLYAVLVSALVLMAMVKRKDSRGRAKRSGSGATNFSLLKQAGDVEENPGPTSMDWIWRILFLVGAATGAHSFEQVQLVESGGGLVQPGGSLRLSCAASGFTFTNHAMSWVRQAPGKGLELVSSISGNGRTTYYADSVKGRFTISRDISKNTLDLQMNSLRAEDTAVYYCAKDGGETLVDSRGQGTLVTVSSTRIQNPDPAVYQLRDSKSSDKSVCLFTDFDSQTNVSQSKDSDVYITDKCVLDMRSMDFKSNSAVAWSNKSDFACANAFNNSIIPEDTFFPSPESSCDVKLVEKSFETDTNLNFQNLSVIGFRILLLKVAGFNLLMTLRLWSSRAKRSGSGVKQTLNFDLLKLAGDVESNPGPSRGHMTEYKPTVRLATRDDVPRAVRTLAAAFADYPATRHTVDPDRHIERVTELQELFLTRVGLDIGKVWVADDGAAVAVWTTPESVEAGAVFAEIGPRMAELSGSRLAAQQQMEGLLAPHRPKEPAWFLATVGVSPDHQGKGLGSAVVLPGVEAAERAGVPAFLETSAPRNLPFYERLGFTVTADVEVPEGPRTWCMTRKPGA
- NFAT-GFP ASSAY: L363 (L363 cells): + (refer to approximately 5%, 10%, 20%, 30%, 40% and 50% GFP positive cells)
- NFAT-GFP ASSAY: Nalm6 (Nalm6 cells): +/- (refer to approximately 5%, 10%, 20%, 30%, 40% and 50% GFP positive cells)

B3: 22047 (protein)
chain: MALPVTALLLPLALLLHAARPQLQLQESGPGLVKPSETLSLTCTVSGDSISSGDYYWGWIRQPPGKGLEWIGHIYYSGVTYYNPSLKSRVTISVDTSRNQFSLKLSSVTAADTAVYYCTREDSSNWRSRGQGTLVTVSSLEDKTHTCPPCPAPIKTDVITMDPKDNCSKDANDTLLLQLTNTSAYYMYLLLLLKSVVYFAIITCCLLRRTAFCCNGEKSRAKRSGSGATNFSLLKQAGDVEENPGPTSMDWIWRILFLVGAATGAHSFEVQLLESGGGLIQPGGSLRLSCAASGFTFSSHAMTWVRQAPGKGLEWVSAISGSGDYTHYADSVKGRFTISRDNSKNTVYLQMNSLRAEDSAVYYCAKDEDGGSLLGHRGQGTLVTVSSTRIQNPDPAVYQLRDSKSSDKSVCLFTDFDSQTNVSQSKDSDVYITDKCVLDMRSMDFKSNSAVAWSNKSDFACANAFNNSIIPEDTFFPSPESSCDVKLVEKSFETDTNLNFQNLSVIGFRILLLKVAGFNLLMTLRLWSSRAKRSGSGVKQTLNFDLLKLAGDVESNPGPSRGHMTEYKPTVRLATRDDVPRAVRTLAAAFADYPATRHTVDPDRHIERVTELQELFLTRVGLDIGKVWVADDGAAVAVWTTPESVEAGAVFAEIGPRMAELSGSRLAAQQQMEGLLAPHRPKEPAWFLATVGVSPDHQGKGLGSAVVLPGVEAAERAGVPAFLETSAPRNLPFYERLGFTVTADVEVPEGPRTWCMTRKPGA
- NFAT-GFP ASSAY: L363 (L363 cells): +/- (refer to approximately 5%, 10%, 20%, 30%, 40% and 50% GFP positive cells)
- NFAT-GFP ASSAY: Nalm6 (Nalm6 cells): +/- (refer to approximately 5%, 10%, 20%, 30%, 40% and 50% GFP positive cells)

B4: 22049 (protein)
chain: MALPVTALLLPLALLLHAARPQLQLQESGPGLVKPSETLSLTCTVSGDSISSGDYYWGWIRQPPGKGLEWIGHIYYSGVTYYNPSLKSRVTISVDTSRNQFSLKLSSVTAADTAVYYCTREDSSNWRSRGQGTLVTVSSLEGQPKANPTVTLFPPSSEELQANKATLVCLISDFYPGAVTVAWKADGSPVKAGVETTKPSKQSNNKYAASSYLSLTPEQWKSHRSYSCQVTHEGSTVEKTVAPTECSPIKTDVITMDPKDNCSKDANDTLLLQLTNTSAYYMYLLLLLKSVVYFAIITCCLLRRTAFCCNGEKSRAKRSGSGATNFSLLKQAGDVEENPGPTSMDWIWRILFLVGAATGAHSFEVQLLESGGGLIQPGGSLRLSCAASGFTFSSHAMTWVRQAPGKGLEWVSAISGSGDYTHYADSVKGRFTISRDNSKNTVYLQMNSLRAEDSAVYYCAKDEDGGSLLGHRGQGTLVTVSSTRASTKGPSVFPLAPSSKSTSGGTAALGCLVKDYFPEPVTVSWNSGALTSGVHTFPAVLQSSGLYSLSSVVTVPSSSLGTQTYICNVNHKPSNTKVDKRVEPKSCEVKTDSTDHVKPKETENTKQPSKSCHKPKAIVHTEKVNMMSLTVLGLRMLFAKTVAVNFLLTAKLFFLRAKRSGSGVKQTLNFDLLKLAGDVESNPGPSRGHMTEYKPTVRLATRDDVPRAVRTLAAAFADYPATRHTVDPDRHIERVTELQELFLTRVGLDIGKVWVADDGAAVAVWTTPESVEAGAVFAEIGPRMAELSGSRLAAQQQMEGLLAPHRPKEPAWFLATVGVSPDHQGKGLGSAVVLPGVEAAERAGVPAFLETSAPRNLPFYERLGFTVTADVEVPEGPRTWCMTRKPGA
- NFAT-GFP ASSAY: L363 (L363 cells): +/- (refer to approximately 5%, 10%, 20%, 30%, 40% and 50% GFP positive cells)
- NFAT-GFP ASSAY: Nalm6 (Nalm6 cells): +/- (refer to approximately 5%, 10%, 20%, 30%, 40% and 50% GFP positive cells)
